Measured values: paper PMC5010959
Several values for one entry are separate records, joined by “and”; a condition that tells them apart may be missing. Identical values can stand only once.

B1: TW3 2'-F modified (XNA)
RNA: GGGUACCCACUCAGGUACGUGGGAAUUGAGCGGGUCACACUAUAAGCACGAGCCUUAGACAGCUUUCUAGAAUUAAGCUUAGGC
modifications: 2'-fluoro pyrimidines (C and U)
B2: TW3 unmodified (structured_RNA)
RNA: B1 RNA
B3: TW1 2'-F modified (XNA)
RNA: GGGUACCCACUCAGGUACGAUUGGUGCGAUAAACUAGACUCGUCAUGCGCAGUCUCCUACAGCUUUCUAGAAUUAAGCUUAGGC
modifications: 2'-fluoro pyrimidines (C and U)
B4: TW1 unmodified (structured_RNA)
RNA: B3 RNA

Assays:
BoNT/A light chain (LCA) [1] = target: T1, BoNT/A light chain (LCA) (Clostridium botulinum type A, UniProt P0DPI1 2-448)
T1 sequence (P0DPI1 2-448): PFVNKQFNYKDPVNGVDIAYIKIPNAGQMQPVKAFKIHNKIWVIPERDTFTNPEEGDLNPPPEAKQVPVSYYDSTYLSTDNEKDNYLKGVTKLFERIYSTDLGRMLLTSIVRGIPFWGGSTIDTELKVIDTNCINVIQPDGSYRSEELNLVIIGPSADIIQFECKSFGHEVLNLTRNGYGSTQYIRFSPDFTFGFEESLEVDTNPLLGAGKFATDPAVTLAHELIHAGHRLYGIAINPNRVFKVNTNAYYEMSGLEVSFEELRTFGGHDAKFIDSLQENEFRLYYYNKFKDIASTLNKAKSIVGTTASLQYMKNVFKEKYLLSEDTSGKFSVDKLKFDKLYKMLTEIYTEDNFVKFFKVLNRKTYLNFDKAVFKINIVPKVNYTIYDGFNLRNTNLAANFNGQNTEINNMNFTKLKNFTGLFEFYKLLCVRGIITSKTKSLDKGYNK

BoNT/A light chain (LCA) [2] = target: T1, BoNT/A light chain (LCA); test: SPR

Binder	IC50 (BoNT/A light chain (LCA) [1]) [nM]	Ki (BoNT/A light chain (LCA) [1])	Kd (BoNT/A light chain (LCA) [2]) [nM]
B1	727 ± 12	463 nM and 849 nM	27.9 ± 4.3
B2			59.1 ± 7.3
B3	639 ± 13	433 nM and 720 nM	31.4 ± 4.4
B4			109 ± 9.9
